Bridges are numbered along the chain shown (N, C = ends). Where no end group is shown, it is not given here. [ ]: non-standard residue; d: D form. MPEG5000 = polyethyleneglycol of 5000 molecular weight, attached to the N-terminal Cys; dPen = CC(C)(S)[C@@H](N)C(=O)O
B1: SEQ ID NO 39 (peptide)
peptide: [dC]SWLDV[dC]-OH
modifications: disulfide 1-7; N-terminus assumed
SMILES: CC(C)C[C@@H]1NC(=O)[C@H](Cc2c[nH]c3ccccc23)NC(=O)[C@H](CO)NC(=O)[C@H](N)CSSC[C@H](C(=O)O)NC(=O)[C@H](C(C)C)NC(=O)[C@H](CC(=O)O)NC1=O
B2: SEQ ID NO 9 (peptide)
peptide: SWLDVC-OH
modifications: thioether (positions not given here); not fully specified (N-terminus, bridges); printed as CH2CO-Ser-Trp-Leu-Asp-Val-Cys-acid; also: sulfide, sulfoxide or sulfone not given here
notes: also called CH2CO-Ser-Trp-Leu-Asp-Val-Cys-acid
B3: SEQ ID NO 3 (peptide)
peptide: cyclo(EWLDVD)
modifications: not fully specified (residue 3)
notes: Head-to-tail cyclic lactam; also called Glu-Trp-Leu-Asp-Val-Asp
B4: SEQ ID NO 35 (peptide)
peptide: [dC]EWLDVC-OH
modifications: disulfide 1-7; N-terminus assumed
SMILES: CC(C)C[C@@H]1NC(=O)[C@H](Cc2c[nH]c3ccccc23)NC(=O)[C@H](CCC(=O)O)NC(=O)[C@H](N)CSSC[C@@H](C(=O)O)NC(=O)[C@H](C(C)C)NC(=O)[C@H](CC(=O)O)NC1=O
notes: Disulfide cyclic peptide; also called dCys-Glu-Trp-Leu-Asp-Val-Cys-acid
B5: SEQ ID NO 37 (peptide)
peptide: CSFLDYC-OH
modifications: disulfide 1-7; N-terminus assumed
SMILES: CC(C)C[C@@H]1NC(=O)[C@H](Cc2ccccc2)NC(=O)[C@H](CO)NC(=O)[C@@H](N)CSSC[C@@H](C(=O)O)NC(=O)[C@H](Cc2ccc(O)cc2)NC(=O)[C@H](CC(=O)O)NC1=O
notes: Disulfide cyclic peptide; also called Cys-Ser-Phe-Leu-Asp-Tyr-Cys-acid
B6: SEQ ID NO 38 (peptide)
peptide: CEFLDYC-OH
modifications: disulfide 1-7; N-terminus assumed
SMILES: CC(C)C[C@@H]1NC(=O)[C@H](Cc2ccccc2)NC(=O)[C@H](CCC(=O)O)NC(=O)[C@@H](N)CSSC[C@@H](C(=O)O)NC(=O)[C@H](Cc2ccc(O)cc2)NC(=O)[C@H](CC(=O)O)NC1=O
notes: Disulfide cyclic peptide; also called Cys-Glu-Phe-Leu-Asp-Tyr-Cys-acid
B7: SEQ ID NO 41 (peptide)
peptide: MPEG5000-CWLDVC-OH
modifications: disulfide 1-6
notes: Disulfide cyclic peptide; also called MPEG5000-Cys-Trp-Leu-Asp-Val-Cys-acid
B8: SEQ ID NO 40 (peptide)
peptide: CPEWLDVC-OH
modifications: disulfide 1-8; N-terminus assumed
SMILES: CC(C)C[C@@H]1NC(=O)[C@H](Cc2c[nH]c3ccccc23)NC(=O)[C@H](CCC(=O)O)NC(=O)[C@@H]2CCCN2C(=O)[C@@H](N)CSSC[C@@H](C(=O)O)NC(=O)[C@H](C(C)C)NC(=O)[C@H](CC(=O)O)NC1=O
notes: Disulfide cyclic peptide
B9: SEQ ID NO 10 (peptide)
peptide: {CH2CO}-EWLDVC-OH
modifications: thioether N-6; also: sulfide, sulfoxide or sulfone not given here
notes: also called CH2CO-Glu-Trp-Leu-Asp-Val-Cys-acid
B10: SEQ ID NO 42 (peptide)
peptide: [dPen]WLDVC-OH
modifications: disulfide 1-6; N-terminus assumed
SMILES: CC(C)C[C@@H]1NC(=O)[C@H](Cc2c[nH]c3ccccc23)NC(=O)[C@H](N)C(C)(C)SSC[C@@H](C(=O)O)NC(=O)[C@H](C(C)C)NC(=O)[C@H](CC(=O)O)NC1=O
notes: Disulfide cyclic peptide; also called dPen-Trp-Leu-Asp-Val-Cys-acid
B11: SEQ ID NO 4 (peptide)
peptide: EWLDV
modifications: cyclic: lactam formed by condensation of the N and C terminus
notes: Head-to-tail cyclic lactam; also called Glu-Trp-Leu-Asp-Val
B12: SEQ ID NO 5 (peptide)
peptide: EWLDD
modifications: cyclic: lactam formed by condensation of the N and C terminus
notes: Head-to-tail cyclic lactam; also called Glu-Trp-Leu-Asp-Asp
B13: SEQ ID NO 7 (peptide)
peptide: GPEFLDV
modifications: cyclic: lactam formed by condensation of the N and C terminus
notes: Head-to-tail cyclic lactam; also called Gly-Pro-Glu-Phe-Leu-Asp-Val
B14: fusion protein of the two N-terminal domains of human VCAM with the hinge, CH2 and CH3 regions of mouse IgG2A (Fc fusion, UniProt P19320 25-220, looked up)
chain: FKIETTPESRYLAQIGDSVSLTCSTTGCESPFFSWRTQIDSPLNGKVTNEGTTSTLTMNPVSFGNEHSYLCTATCESRKLEKGIQVEIYSFPKDPEIHLSGPLEAGKPITVKCSVADVYPFDRLEIDLLKGDHLMKSQEFLEDADRKSLETKSLEVTFTPVIEDIGKVLVCRAKLHIDEMDSVPTVRQAVKELQVY
notes: domain: two N-terminal domains; Secreted from transfected COS cells and captured on Dynal magnetic beads coated with goat anti-mouse IgG; also called VCAM-1; purified VCAM; not shown: mouse IgG2A hinge, CH2 and CH3 regions, amplified from cDNA of the hybridoma cell line 402C10

These binders were tested against integrin α4β1 (human) (UniProt P13612) (assay: inhibition of HL-60 cell (α4β1) binding to VCAM-IgG coated beads, fluorimetry).
Sequence of integrin α4β1 (human) (P13612 34-1032, chain 1 of 2): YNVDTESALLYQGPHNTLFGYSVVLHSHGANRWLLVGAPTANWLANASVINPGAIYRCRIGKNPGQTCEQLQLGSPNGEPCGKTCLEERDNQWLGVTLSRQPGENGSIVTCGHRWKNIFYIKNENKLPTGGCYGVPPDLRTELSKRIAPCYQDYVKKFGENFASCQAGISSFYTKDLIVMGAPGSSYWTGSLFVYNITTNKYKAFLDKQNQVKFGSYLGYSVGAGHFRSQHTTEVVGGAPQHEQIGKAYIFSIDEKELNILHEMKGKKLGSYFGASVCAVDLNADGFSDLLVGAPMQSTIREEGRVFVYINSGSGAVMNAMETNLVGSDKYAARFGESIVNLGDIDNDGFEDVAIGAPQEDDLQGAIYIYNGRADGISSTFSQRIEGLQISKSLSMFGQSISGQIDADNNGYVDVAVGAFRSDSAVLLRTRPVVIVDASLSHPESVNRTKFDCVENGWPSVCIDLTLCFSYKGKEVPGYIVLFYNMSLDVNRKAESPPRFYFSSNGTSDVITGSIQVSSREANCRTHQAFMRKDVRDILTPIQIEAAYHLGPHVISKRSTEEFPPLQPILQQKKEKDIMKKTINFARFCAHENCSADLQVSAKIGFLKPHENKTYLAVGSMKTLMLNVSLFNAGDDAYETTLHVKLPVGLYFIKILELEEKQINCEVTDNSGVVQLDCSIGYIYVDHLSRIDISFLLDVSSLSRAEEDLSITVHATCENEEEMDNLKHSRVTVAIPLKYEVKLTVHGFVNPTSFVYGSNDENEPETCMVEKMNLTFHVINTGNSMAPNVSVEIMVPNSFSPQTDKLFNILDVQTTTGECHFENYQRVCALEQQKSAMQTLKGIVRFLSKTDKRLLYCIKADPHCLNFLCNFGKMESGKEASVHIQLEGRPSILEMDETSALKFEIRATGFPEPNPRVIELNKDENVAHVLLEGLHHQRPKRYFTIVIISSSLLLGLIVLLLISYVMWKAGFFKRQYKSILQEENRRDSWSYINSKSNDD
Sequence of integrin α4β1 (human) (P05556 21-798, chain 2 of 2, further chain): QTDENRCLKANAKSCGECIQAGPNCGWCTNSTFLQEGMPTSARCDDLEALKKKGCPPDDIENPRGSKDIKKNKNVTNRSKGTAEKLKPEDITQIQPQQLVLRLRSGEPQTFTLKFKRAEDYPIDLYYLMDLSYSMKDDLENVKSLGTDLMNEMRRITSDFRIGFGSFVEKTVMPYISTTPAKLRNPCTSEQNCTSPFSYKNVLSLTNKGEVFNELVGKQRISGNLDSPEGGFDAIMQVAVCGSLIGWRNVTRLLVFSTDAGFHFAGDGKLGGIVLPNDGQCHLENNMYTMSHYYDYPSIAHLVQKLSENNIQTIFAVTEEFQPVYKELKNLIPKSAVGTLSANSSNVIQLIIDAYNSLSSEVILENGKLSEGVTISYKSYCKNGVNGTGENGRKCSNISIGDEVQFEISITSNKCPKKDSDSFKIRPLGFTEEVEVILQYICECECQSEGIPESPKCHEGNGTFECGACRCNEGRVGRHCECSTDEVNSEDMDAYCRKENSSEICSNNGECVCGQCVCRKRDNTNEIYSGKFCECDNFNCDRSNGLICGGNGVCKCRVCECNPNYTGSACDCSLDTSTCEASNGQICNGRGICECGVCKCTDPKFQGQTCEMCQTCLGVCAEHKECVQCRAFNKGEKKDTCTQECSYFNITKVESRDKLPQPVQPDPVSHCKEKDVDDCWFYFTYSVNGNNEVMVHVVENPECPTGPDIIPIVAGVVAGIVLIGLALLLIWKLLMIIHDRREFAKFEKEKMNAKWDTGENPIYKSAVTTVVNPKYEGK

Binder	peptide concentration that significantly inhibits binding
B1	< 10 µM

These binders were tested against T1, integrin α4β1 (human, UniProt P13612 34-1032; P05556 21-798) in the same assay as above.
T1 construct: whole, on cells; also called VLA-4; very late antigen-4
Experimental: (§1) The media was collected and active protein was purified by immunoprecipitation using Dynal magnetic polystyrene beads coated with goat anti-mouse IgG. Following immunoprecipitation, the beads bound cells that expressed the integrin α_4β_1 such as Ramos and HL-60.
HL-60 cells were fluorescently labeled with Calcein AM C-3099 (Molecular Probes) and resuspended in 1 ml of binding buffer (Hank's balanced salt solution, pH 7.4, 1.0 mM CaCl_2, 1.0 mM MgCl_2). The beads (10 µl, 4×10^6 beads/ml) were placed in wells of a 96-well microtiter dish with 10 µl of peptide at various concentrations. The beads were incubated with 10 µl of labeled cells (10^7 cells/ml) for 10 min at room temperature. Following immobilization of the beads onto the plastic with a magnet, unbound cells were removed by washing three times with binding buffer. The remaining bound cells were lysed in 50 mM Tris, pH 7.4, 5.0 mM EDTA, 1.0% NP-40 and quantitated by fluorimetry using a Millipore Cytofluor 2350 fluorimeter. Dose response curves were calculated and IC$50$ values determined. Alternatively, the percent adhesion was determined at a single peptide concentration for comparison among peptides.

T1 sequence (P13612 34-1032, chain 1 of 2): as the sequence (P13612 34-1032, chain 1 of 2) above
T1 sequence (P05556 21-798, chain 2 of 2): as the sequence (P05556 21-798, chain 2 of 2, further chain) above

Binder	peptide concentration that significantly inhibits binding
B2	< 10 µM
B3	< 10 µM
B4	< 10 µM
B5	< 10 µM
B6	< 10 µM
B7	< 10 µM
EWLDVPEWLDV (cyclic: lactam formed by condensation of the N and C terminus, Head-to-tail cyclic lactam) [SEQ ID NO 6]	< 10 µM
B8	< 10 µM
B9	< 10 µM
B10	< 10 µM
B11	< 10 µM
B12	< 10 µM
B13	< 10 µM

The binders below were run against T1, integrin α4β1 (assay: VCAM-IgG fusion on goat anti-mouse IgG magnetic beads; binding of Ramos and HL-60 cells).
Text: as §1

Binder	binding result
B14	binds
